Substitutions are numbered along the chain they refer to.
Legend:
[1] = biological target: T1, C9ORF72 (human, UniProt Q96LT7 1-481); experiment: AUC
T1 sequence: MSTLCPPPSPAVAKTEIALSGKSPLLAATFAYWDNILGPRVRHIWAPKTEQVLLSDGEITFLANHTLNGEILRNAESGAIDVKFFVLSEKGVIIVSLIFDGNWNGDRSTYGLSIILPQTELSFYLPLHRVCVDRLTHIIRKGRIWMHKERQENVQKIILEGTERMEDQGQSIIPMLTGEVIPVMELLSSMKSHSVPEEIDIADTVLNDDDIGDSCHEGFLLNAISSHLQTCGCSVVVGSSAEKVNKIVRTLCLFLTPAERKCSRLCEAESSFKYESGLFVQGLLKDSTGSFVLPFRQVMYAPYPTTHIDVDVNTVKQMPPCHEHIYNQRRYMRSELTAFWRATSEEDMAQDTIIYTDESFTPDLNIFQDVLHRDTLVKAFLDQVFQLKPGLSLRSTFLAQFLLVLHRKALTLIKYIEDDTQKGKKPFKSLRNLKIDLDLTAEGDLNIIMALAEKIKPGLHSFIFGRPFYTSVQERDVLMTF

[2] = biological target: T2, C9ORF72-SMCR8 complex (human, UniProt Q96LT7;Q8TEV9); experiment: SEC
T2 sequence 1: T1 sequence
T2 sequence 2: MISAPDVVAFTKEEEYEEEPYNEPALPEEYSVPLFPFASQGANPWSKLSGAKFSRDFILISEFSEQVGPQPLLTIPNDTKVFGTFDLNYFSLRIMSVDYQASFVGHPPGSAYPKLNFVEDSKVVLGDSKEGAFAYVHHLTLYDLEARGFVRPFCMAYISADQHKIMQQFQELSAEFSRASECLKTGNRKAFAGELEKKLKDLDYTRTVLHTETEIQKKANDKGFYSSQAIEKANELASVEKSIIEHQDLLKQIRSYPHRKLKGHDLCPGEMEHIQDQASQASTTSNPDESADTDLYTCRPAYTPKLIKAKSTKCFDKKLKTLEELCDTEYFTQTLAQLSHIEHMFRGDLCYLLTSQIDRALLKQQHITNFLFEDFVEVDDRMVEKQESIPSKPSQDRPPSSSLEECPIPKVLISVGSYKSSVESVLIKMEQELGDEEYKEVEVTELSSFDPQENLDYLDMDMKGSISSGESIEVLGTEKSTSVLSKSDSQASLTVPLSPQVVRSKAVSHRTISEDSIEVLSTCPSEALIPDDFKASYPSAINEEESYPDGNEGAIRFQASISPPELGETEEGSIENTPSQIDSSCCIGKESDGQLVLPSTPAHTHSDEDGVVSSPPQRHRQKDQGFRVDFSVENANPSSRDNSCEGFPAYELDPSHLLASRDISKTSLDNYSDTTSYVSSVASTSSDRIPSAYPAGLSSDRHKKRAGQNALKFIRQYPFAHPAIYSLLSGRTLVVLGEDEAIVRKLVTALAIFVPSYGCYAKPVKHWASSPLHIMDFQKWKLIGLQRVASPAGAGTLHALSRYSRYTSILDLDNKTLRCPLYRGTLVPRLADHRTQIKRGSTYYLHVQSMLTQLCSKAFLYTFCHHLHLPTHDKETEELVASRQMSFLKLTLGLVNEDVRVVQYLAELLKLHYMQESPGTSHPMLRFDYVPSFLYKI

[3] = biological target: T3, C9ORF72-SMCR8^M2 complex (human, UniProt Q96LT7;Q8TEV9, T862A | F863A | H865A | L867A); experiment: pull-down
T3 sequence 1: T1 sequence
T3 sequence 2: T2 sequence 2 with T862A, F863A, H865A, L867A

[4] = biological target: T4, C9ORF72-SMCR8^M3 complex (human, UniProt Q96LT7;Q8TEV9, E907A | K910A | Y913A | M914A); experiment: pull-down
T4 sequence 1: T1 sequence
T4 sequence 2: T2 sequence 2 with E907A, K910A, Y913A, M914A

[5] = biological target: the molecule itself; experiment: AUC

B1: SMCR8 Longin domain (SMCR8^Longin), co-expressed with C9ORF72 (domain or fragment)
chain: MISAPDVVAFTKEEEYEEEPYNEPALPEEYSVPLFPFASQGANPWSKLSGAKFSRDFILISEFSEQVGPQPLLTIPNDTKVFGTFDLNYFSLRIMSVDYQASFVGHPPGSAYPKLNFVEDSKVVLGDSKEGAFAYVHHLTLYDLEARGFVRPFCMAYISADQHKIMQQFQELSAEFSRASECLKTGNRKAFAGELEKKLKDLDYTRTVLHTETEIQKKANDKGFYSSQAIEKANELASVEKSIIEHQDLLKQIRSYPHRKLKGHDLCPGEMEHIQDQASQASTTSNPDESADTDLYTCRPAYTPKLIKAKSTKCFDKKLKTLEELCDTEYFTQTLAQLSHIEHMFRGDL
[1]
  binding result: binds

B2: WDR41 (WD40 repeat-containing protein 41) (natural protein)
chain: MLRWLIGGGREPQGLAEKSPLQTIGEEQTQNPYTELLVLKAHHDIVRFLVQLDDYRFASAGDDGIVVVWNAQTGEKLLELNGHTQKITAIITFPSLESCEEKNQLILTASADRTVIVWDGDTTRQVQRISCFQSTVKCLTVLQRLDVWLSGGNDLCVWNRKLDLLCKTSHLSDTGISALVEIPKNCVVAAVGKELIIFRLVAPTEGSLEWDILEVKRLLDHQDNILSLINVNDLSFVTGSHVGELIIWDALDWTMQAYERNFWDPSPQLDTQQEIKLCQKSNDISIHHFTCDEENVFAAVGRGLYVYSLQMKRVIACQKTAHDSNVLHVARLPNRQLISCSEDGSVRIWELREKQQLAAEPVPTGFFNMWGFGRVSKQASQPVKKQQENATSCSLELIGDLIGHSSSVEMFLYFEDHGLVTCSADHLIILWKNGERESGLRSLRLFQKLEENGDLYLAV
[2]
  stoichiometry N: 1
[3]
  binding result: binds
[4]
  binding result: binds

B3: C9ORF72-SMCR8-WDR41 complex (complex)
chain 1: T1 sequence
chain 2: T2 sequence 2
chain 3: B2 chain
[5]
  stoichiometry N: 2
